The values below come from patent US7416847, “In vitro peptide or protein expression library” (Isogenica Limited).

Series [1] concerns the target T1, P2 A protein (replication initiation protein A), His6-tagged (Bacteriophage P2, UniProt Q06419 Q06419:1-761).
T1 sequence: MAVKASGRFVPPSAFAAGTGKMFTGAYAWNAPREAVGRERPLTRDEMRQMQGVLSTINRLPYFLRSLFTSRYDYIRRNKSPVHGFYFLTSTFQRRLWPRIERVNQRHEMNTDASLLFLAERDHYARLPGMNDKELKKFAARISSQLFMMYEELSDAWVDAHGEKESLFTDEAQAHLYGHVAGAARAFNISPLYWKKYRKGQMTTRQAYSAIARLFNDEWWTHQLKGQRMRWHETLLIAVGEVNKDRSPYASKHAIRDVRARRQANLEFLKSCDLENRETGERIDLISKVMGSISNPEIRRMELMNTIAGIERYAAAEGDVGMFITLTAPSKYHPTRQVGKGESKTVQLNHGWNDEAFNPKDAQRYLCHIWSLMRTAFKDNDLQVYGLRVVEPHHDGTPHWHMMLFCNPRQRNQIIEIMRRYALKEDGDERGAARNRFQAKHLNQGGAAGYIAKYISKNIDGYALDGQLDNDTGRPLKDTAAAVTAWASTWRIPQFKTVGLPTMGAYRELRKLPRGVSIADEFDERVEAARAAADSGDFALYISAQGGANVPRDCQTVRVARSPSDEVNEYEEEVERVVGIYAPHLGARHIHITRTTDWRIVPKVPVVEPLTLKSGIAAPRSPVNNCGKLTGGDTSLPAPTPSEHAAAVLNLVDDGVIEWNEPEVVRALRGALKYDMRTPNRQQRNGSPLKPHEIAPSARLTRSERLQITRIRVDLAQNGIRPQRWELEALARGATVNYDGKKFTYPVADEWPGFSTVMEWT
The series is described as follows: pulldown; Ni-NTA selection of His::A plasmid over A plasmid pEN21; no enrichment when S30 extract omitted; whole plasmid assayed, listed sequence is only the attachment region; 1 mM imidazole wash. The following applies: tags: N-terminal His6 (expressed from pEE711 or pEN24 in E. coli T7 S30 extract, Promega). From the text:
In the second experiment two new plasmid constructs pEN21 (an A gene construct with an amp resistance gene, see FIG. 1) and pEN24 (a His::A gene construct with a tag of six histidine residues and a kanamycin resistance gene, see FIG. 1) were subjected to the same type of experiment as in experiment 1 above, with the modifications indicated in the materials and methods section below. By employing this differential antibiotic resistance it is possible to score for the individual plasmid types directly as bacterial colonies.
Materials and Methods pEN21 and 24 are derivatives of pET21a and pET24a (Novagen Inc. USA). The pET21a and pET24a vectors differ only by their selectable marker (ampicillin and kanamycin resistance respectively). The pEN21 and pEN24 were constructed by restriction cutting of pEE709 and pEE711 with XbaI and BlpI which cuts out the A gene and flanking regions. pET21a and pET24a were cut with the same restriction enzymes. The A-fragments and new vector fragments were isolated from an agarose gel after electrophoresis by Spin-Bind columns (FMC). […] The plasmids were incubated for 30 minutes in the S30 extracts and the plasmid types were scored by differential antibiotic resistance using ampicillin (pEN21) and kanamycin (pEN24) plates after transformation of E. coli strain BK 2118 by electroporation. […]

In series [2] the target is T1, P2 A protein (replication initiation …). The series is described as follows: pulldown; Ni-NTA selection of His::A plasmid over A plasmid pEE709; cis covalent binding; whole plasmid assayed, listed sequence is only the attachment region; 50 mM Na-phosphate pH 8.0, 300 mM NaCl, 20 mM imidazole. The following applies: tags: N-terminal His6 (expressed from pEE711 or pEN24 in E. coli T7 S30 extract, Promega). The protocol: One ug of DNA of the pEE709 and the pEE711 plasmids respectively was added to the coupled transcription/translation extract kit (20 ul S30 premix, 5 ul aminoacid mix and 15 ul *E. Coli* T7 S30 extract system for circular DNA, Promega, USA). The transcription/translation was allowed to proceed for 60 minutes at 37° C. The extract mixture was diluted 12-fold in washing buffer (Qiagen; […] Na-phosphate pH 8.0, 300 mM NaCl, 20 mM imidazole, 1 mM PMSF) and subjected to Ni selection by addition to a Ni-NTA spin column (Qiagen, Germany) equilibrated with Buffer 1 (50 mM Na-phosphate pH 8.0, 300 mM NaCl, 20 mM imidazole) under non-denaturing conditions. […] High efficiency competent cells JM109 (Promega, USA) were transformed with a portion of the eluant and scored for ampicillin resistant colonies. […]
To determine the distribution (ratio) of the plasmid types in the eluant, the presence of plasmids was measured by transformation of strain JM 109 (Promega) for amp-resistance. Colonies were picked and analysed for their plasmid type (differentiated by size) after plasmid extraction followed by agarose gel electrophoresis. The ratio of pEE711 (His::A) to pEE709 (A) in the absence of Ni-column selection was also determined.

B1: pEN24 plasmid encoding His::A (contains P2 A attachment site) (dsDNA)
DNA 1: AGCGGCATCGCCGCGCCTCGGAGTCCTGTC
DNA 2: GACAGGACTCCGAGGCGCGGCGATGCCGCT
With B1, the binding signal in series [1] stood at 6.8 fold enrichment.

B2: pEE711 plasmid encoding His::A (contains P2 A attachment site) (dsDNA)
DNA 1: AGCGGCATCGCCGCGCCTCGGAGTCCTGTC
DNA 2: GACAGGACTCCGAGGCGCGGCGATGCCGCT
As to B2, the binding signal in series [2] is 13.3 fold enrichment.
